The results in this text go back to article PMC2935386.

The assay has as its target fluorescein-labelled zinc finger region of GATA2 (GATA2-Zf), residues 291-412 (UniProt P23769). Put plainly: fluorescence polarisation; fluorescence anisotropy; 10nM fluorescein-labeled GATA2-Zf titrated with unlabeled, unliganded TR DBD-LBD or TR DBD, 1nM to 10.000nM; 10°C, 50mM NaCl, 20mM Hepes pH8.0, 3mM dithiothreitol, 5% glycerol. On the technique in general: Fluorescence polarisation rises when a labelled molecule tumbles more slowly, as on binding a larger partner.

Chain of fluorescein-labelled zinc finger region of GATA2 (GATA2-Zf), residues 291-412 (P23769 291-412): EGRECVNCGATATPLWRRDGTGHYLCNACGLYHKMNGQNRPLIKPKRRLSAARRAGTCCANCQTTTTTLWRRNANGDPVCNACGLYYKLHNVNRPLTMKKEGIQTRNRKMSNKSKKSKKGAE

What is called Kd is the constant that tells how readily two partners part at equilibrium. Low values mean higher affinity, high ones lower affinity. Regarding “human TRβ1ΔAB/EF (TR DBD), thyroid hormone receptor β1 residues 102-198, poly-histidine construct (from UniProt P10828-1 102-198) (domain or fragment)”, the Kd is 1930 nM.
